The text below walks through data of publication PMC5058683, “Structural basis for small molecule targeting of the programmed death ligand 1 (PD-L1)” (Oncotarget, 2016).

What is called stoichiometry N is the number of molecules, sites or subunits per partner or assembly.

In this test the target is human PD-1 (33-150, Cys93 exchanged to serine) (human, UniProt Q15116 33-150, Cys93 exchanged to serine). Briefly: NMR titration; AIDA assay: 15N-labelled PD-1 (0.2 mM) slightly overtitrated with unlabelled PD-L1; 1H-15N HMQC linewidths; 300 K; complex mass estimated from relaxation time analysis. Conditions: both partners purified.
Chain of human PD-1 (33-150, Cys93 exchanged to serine) (Q15116 other isoform, or with tags, fused parts or gaps Cys93 exchanged to serine | Cys93 exchanged to serine): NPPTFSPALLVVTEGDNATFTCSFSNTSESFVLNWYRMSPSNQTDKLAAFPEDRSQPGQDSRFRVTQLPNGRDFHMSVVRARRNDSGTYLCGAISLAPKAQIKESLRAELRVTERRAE

B1: human PD-L1 (amino acids 18-134) (domain or fragment)
chain: AFTVTVPKDLYVVEYGSNMTIECKFPVEKQLDLAALIVYWEMEDKNIIQFVHGEEDLKVQHSSYRQRARLLKDQLSLGNAALQITDVKLQDAGVYRCMISYGGADYKRITVKVNAPY
notes: human PD-L1 (programmed death ligand 1), amino acids 18-134, the distal extracellular IgG like domain; Cloned into pET-21b; The vector may add a C-terminal His tag with a short linker (surmised), and the deposited entries 5J89 and 5J8O would show it; Made in bacteria, so not glycosylated; Uniformly 15N-labelled in some NMR experiments; also called hPD-L1; programmed death ligand 1
On to B1, for which the “stoichiometry N” value was 1.
